In publication PMC5871853, “First insights of peptidoglycan amidation in Gram-positive bacteria - the high-resolution crystal structure of Staphylococcus aureus glutamine amidotransferase GatD” (Scientific Reports, 2018):

Key:
[1] = target: T1, S. aureus GatD (Staphylococcus aureus, UniProt A0A0H2WZ38); experiment: X-ray crystal structure, […] Å; assay type: binding; conditions: co-purified glutamine; bound at surface of chain A to R128, outside the active site; MurT absent
T1 construct: full-length, 243 residues; pOPINF vector, E. coli Lemo21(DE3), IMAC and SEC; crystallised without MurT; dimer in crystal non-physiological
T1 sequence (A0A0H2WZ38 1-243): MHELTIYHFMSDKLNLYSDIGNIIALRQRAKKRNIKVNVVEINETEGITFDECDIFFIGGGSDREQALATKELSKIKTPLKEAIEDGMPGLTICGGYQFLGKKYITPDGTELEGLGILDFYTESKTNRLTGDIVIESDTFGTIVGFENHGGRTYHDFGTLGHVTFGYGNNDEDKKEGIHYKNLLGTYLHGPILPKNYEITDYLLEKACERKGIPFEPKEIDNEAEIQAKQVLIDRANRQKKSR

[2] = target: S. aureus MurT-GatD complex (Staphylococcus aureus, UniProt A0A0H2WZ38); conditions: 875 µM Gln, 35 µM complex, no lipid II; 50 mM Tris-d11, 500 mM NaCl, 10 mM MgCl2, pH meter reading 7.9 in D2O, 293 K
[3] = target: T2, S. aureus GatD R128A (from pET28a-murT-gatD-His6R128A) (Staphylococcus aureus strain COL, UniProt A0A0H2WZ38 1-243, R128A); experiment: co-purification (IMAC + SEC, SDS-PAGE); conditions: partners not purified
T2 sequence: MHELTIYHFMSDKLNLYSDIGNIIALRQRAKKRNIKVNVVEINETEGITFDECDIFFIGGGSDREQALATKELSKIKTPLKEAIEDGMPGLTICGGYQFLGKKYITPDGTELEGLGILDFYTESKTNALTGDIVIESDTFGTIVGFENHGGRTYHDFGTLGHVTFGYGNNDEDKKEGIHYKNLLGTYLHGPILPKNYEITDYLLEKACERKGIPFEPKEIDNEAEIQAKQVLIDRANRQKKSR

[4] = target: T3, S. aureus GatD H189A (from pET28a-murT-gatD-His6H189A) (Staphylococcus aureus strain COL, UniProt A0A0H2WZ38 1-243, H189A); experiment: co-purification (IMAC + SEC, SDS-PAGE); conditions: partners not purified
T3 sequence: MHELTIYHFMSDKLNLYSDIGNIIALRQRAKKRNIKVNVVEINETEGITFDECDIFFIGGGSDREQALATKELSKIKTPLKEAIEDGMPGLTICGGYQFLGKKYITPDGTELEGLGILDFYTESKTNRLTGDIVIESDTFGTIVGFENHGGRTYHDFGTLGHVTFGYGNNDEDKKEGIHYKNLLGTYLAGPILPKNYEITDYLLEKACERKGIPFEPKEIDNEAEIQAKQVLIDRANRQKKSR

[5] = target: T4, S. aureus GatD C94A (from pET28a-murT-gatD-His6C94A) (Staphylococcus aureus strain COL, UniProt A0A0H2WZ38 1-243, C94A); experiment: co-purification (IMAC + SEC, SDS-PAGE); conditions: partners not purified
T4 sequence: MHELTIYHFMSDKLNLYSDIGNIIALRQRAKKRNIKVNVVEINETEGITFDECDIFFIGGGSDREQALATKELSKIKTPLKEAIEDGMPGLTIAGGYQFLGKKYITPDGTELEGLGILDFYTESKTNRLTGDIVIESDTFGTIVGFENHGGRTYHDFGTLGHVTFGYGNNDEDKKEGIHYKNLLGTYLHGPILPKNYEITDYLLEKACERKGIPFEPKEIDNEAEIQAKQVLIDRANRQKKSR

[6] = target: T5, S. aureus GatD wt (from pET28a-murT-gatD-His6) (Staphylococcus aureus strain COL, UniProt A0A0H2WZ38 1-243); experiment: co-purification (IMAC + SEC, SDS-PAGE); MurT and GatD-His6 co-expressed in E. coli from one plasmid; HisTrap then Superdex 200 in 100 mM Tris-HCl pH 8.2, 500 mM NaCl, 10 mM MgCl2, 5 mM 2-mercaptoethanol; molar ratio read from a 12% SDS-PAGE gel of the final samples; conditions: partners not purified
T5 construct: GatD, glutamine amidotransferase, Staphylococcus aureus strain COL, 243 amino acids; coding region amplified with murT as the murT-gatD operon; also called glutamine amidotransferase GatD
T5 sequence (looked up): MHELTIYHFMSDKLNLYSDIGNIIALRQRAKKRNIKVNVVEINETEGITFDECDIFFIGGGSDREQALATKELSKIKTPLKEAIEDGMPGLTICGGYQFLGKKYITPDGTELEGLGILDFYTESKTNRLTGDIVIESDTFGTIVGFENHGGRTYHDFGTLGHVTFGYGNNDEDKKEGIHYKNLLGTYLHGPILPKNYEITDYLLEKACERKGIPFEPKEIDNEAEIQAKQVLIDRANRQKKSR

In the case of NC(=O)CC[C@H](N)C(=O)O [glutamine], the “X-ray crystal structure, 1.85 Å” value [1] is reported as “S. aureus GatD crystallized in the presence of its substrate, glutamine” and the “1H-NMR glutaminase assay (Gln to Glu)” value [2] is reported as “MurT-GatD wt can convert glutamine into glutamate with a first order rate constant”.

B1: S. aureus MurT (enzyme, Staphylococcus aureus strain COL, UniProt A0A0H2WZQ7 1-437, looked up)
chain: MRQWTAIHLAKLARKASRAVGKRGTDLPGQIARKVDTDILRKLAEQVDDIVFISGTNGKTTTSNLIGHTLKANNIQIIHNNEGANMAAGITSAFIMQSTPKTKIAVIEIDEGSIPRVLKEVTPSMMVFTNFFRDQMDRFGEIDIMVNNIAETISNKGIKLLLNADDPFVSRLKIASDTIVYYGMKAHAHEFEQSTMNESRYCPNCGRLLQYDYIHYNQIGHYHCQCGFKREQAKYEISSFDVAPFLYLNINDEKYDMKIAGDFNAYNALAAYTVLRELGLNEQTIKNGFETYTSDNGRMQYFKKERKEAMINLAKNPAGMNASLSVGEQLEGEKVYVISLNDNAADGRDTSWIYDADFEKLSKQQIEAIIVTGTRAEELQLRLKLAEVEVPIIVERDIYKATAKTMDYKGFTVAIPNYTSLAPMLEQLNRSFEGGQS
notes: MurT, Mur ligase family member of the MurT-GatD complex, Staphylococcus aureus strain COL; coding region amplified with gatD as the murT-gatD operon
B1 was tested, and the “stoichiometry N” value [3] was 1 MurT:GatD molar ratio, the “stoichiometry N” value [4] was 1 MurT:GatD molar ratio and the “stoichiometry N” value [5] was 1 MurT:GatD molar ratio. The “stoichiometry N” value [6] was 1 MurT:GatD molar ratio.
